Literature values as cited in publication PMC4166557.

Target: MLL MBM1 4-15 (Homo sapiens) (UniProt Q03164)

Kd: 56 nM
Substance: menin (from UniProt O00255)
